One block for each molecule: values may come before it. Square brackets hold non-standard residues; d marks the D form. Ends that are not written are not given here. Dhb = C/C=C(\N)C(=O)O
How the values were obtained:
[1] = target: (Z)-Dhb-containing 13-mer Erk peptide (DHTGFL-Dhb-EYVATR)
[2] = target: T1, LanCL1 Wild Type (human LanC-like protein 1) (human, UniProt O43813 1-399); assay: fluorescence polarisation; competition: 20 μM LanCL1 WT, 20 nM fluorescein-Dha-Erk, acetyl peptide from 1000 μM in 2-fold dilutions; 15 min incubation; triplicates; dose-response fit, Ki = IC50/(1+[L]/Kd); conditions: both partners purified
T1 construct: LanC-like protein 1 (LanCL1), human; also called LanCL1 WT; WT-LanCL1; source: E. coli Rosetta 2 (DE3), purified (HisTrap Ni-NTA, PD-10 desalting)

[3] = target: T2, human LanCL1, wild type (His6-LanCL1) (human, UniProt O43813 1-399); assay: crystal structure; cocrystals of His6-LanCL1 with GSH soaked in precipitant solution with 2 to 5 mM Dhb-Erk peptide (30, 60 or 90 min); 1.91 Å; the crystal holds the product of GSH addition to the peptide; conditions: both partners purified
T2 construct: LanCL1 (LanC-like protein 1), human; The tag is named on the protein for crystallisation; for the fluorescence polarisation nothing is said of it; also called WT LanCL1; native LanCL1; source: E. coli Rosetta(DE3), pET15b, purified (HisTrap, Superdex 200)
T2 sequence (O43813 whole entry): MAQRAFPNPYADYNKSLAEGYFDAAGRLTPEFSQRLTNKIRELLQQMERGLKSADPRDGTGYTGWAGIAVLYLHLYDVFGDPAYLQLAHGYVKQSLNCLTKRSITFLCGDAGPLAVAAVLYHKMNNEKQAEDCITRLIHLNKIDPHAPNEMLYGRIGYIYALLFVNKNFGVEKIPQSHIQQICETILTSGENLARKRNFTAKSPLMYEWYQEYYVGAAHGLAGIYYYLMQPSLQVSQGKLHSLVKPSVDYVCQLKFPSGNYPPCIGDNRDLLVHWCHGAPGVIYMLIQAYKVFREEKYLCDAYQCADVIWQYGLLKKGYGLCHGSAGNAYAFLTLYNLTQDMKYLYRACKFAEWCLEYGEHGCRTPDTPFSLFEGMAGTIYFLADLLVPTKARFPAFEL

T1 sequence (O43813 whole entry): as above

Molecule: LanCL1 C264A (from UniProt O43813 1-399) (enzyme)
K (m,peptide) of GSH addition to (Z)-Dhb-Erk peptide (LC-MS initial rates, saturating GSH) [1]: 85 µM

Molecule: LanCL1 C264A/H277A (from UniProt O43813 1-399) (enzyme)
K (m,peptide) of GSH addition to (Z)-Dhb-Erk peptide (LC-MS initial rates, saturating GSH) [1]: 240 µM

Molecule: LanCL1 C264A/H277D (from UniProt O43813 1-399) (enzyme)
kcat/K (m,peptide) of GSH addition to (Z)-Dhb-Erk peptide; substrate saturation could not be achieved [1]: 6.17 M⁻¹ s⁻¹

Molecule: LanCL1 C264A/H277K (from UniProt O43813 1-399) (enzyme)
kcat/K (m,peptide) of GSH addition to (Z)-Dhb-Erk peptide; substrate saturation could not be achieved [1]: 2.67 M⁻¹ s⁻¹

Molecule: LanCL1 C264A/H277N (from UniProt O43813 1-399) (enzyme)
K (m,peptide) of GSH addition to (Z)-Dhb-Erk peptide (LC-MS initial rates, saturating GSH) [1]: 417 µM

Further lines, results first:

K (m,peptide) of GSH addition to (Z)-Dhb-Erk peptide (LC-MS initial rates, saturating GSH) [1]: 69 µM
Molecule: LanCL1 C264A/H277Y (from UniProt O43813 1-399) (enzyme)

IC50 [2]: 850 ± 490 µM
Ki [2]: 849 ± 489 µM
B1: acetyl-Ala-Erk peptide (peptide)
peptide: Ac-DHTGFLAEYVATR
notes: Numbers count on: the synthetic 13-mer; Its preparation is not described; also called Ac-Ala-Erk

binding result [3]: binds
B2: (Z)-Dhb-containing 13-mer Erk peptide (DHTGFL-Dhb-EYVATR) (peptide)
peptide: DHTGFL[Dhb]EYVATR
modifications: also: in the crystal Dhb reacted with GSH to form a methyllanthionine
notes: In PDB 8CZK density was seen only for the GFL-Dhb-EY segment, covalently joined to glutathione; also called Dhb-Erk; Dhb-Erk peptide

Source: article PMC9934072, “The mechanism of thia-Michael addition catalyzed by LanC enzymes” (Proceedings of the National Academy of Sciences of the …, 2023)
